Source: US11278600B2, “Human alpha-galactosidase variants” (Codexis, Inc., priority 2014, dated 2022)

B1: 665 (protein)
chain: LDNGLACTPTMGWLHWERFMCNLDCQEEPDSCISEKLFMEMAERMVTEGWKDAGYEYLCIDDCWMAPQRDSEGRLQADPQRFPHGIRQLANHVHSKGLKLGIYADVGNKTCAGFPGSFGYYDIDAQTFADWGVDLLKFDGCYCDSLENLADGYKHMSLALNRTGRPIVYSCEWPLYMWPFQKPNYTEIRQYCNHWRNFADIDDSWASIKSILDWTSRNQERIVDVAGPGGWNDPDMLVIGNFGLSWDQQVTQMALWAIMAAPLFMSNDLRAISPQAKALLQDKDVIAINQDPLGKQGYQLRKGDNFEVWERPLSGDAWAVAIINRQEIGGPRSYTIPVASLGKGVACNPACFITQLLPVKRQLGFYNATSRLKSHINPTGTVLLQLENTMQTSLKDLL
modifications: Synthetic Polypeptide sequence of Variant No. 665 of mature Human GLA
B2: 669 (protein)
chain: LDNGLARTPTMGWLHWERFMCNLDCQEEPDSCISEKLFMEMAERMVTEGWKDAGYEYLCIDDCWMAPQRDSEGRLQADPQRFPHGIRQLANHVHSKGLKLGIYADVGNKTCAGFPGSFGYYDIDAQTFADWGVDLLKFDGCYCDSLENLADGYKHMSLALNRTGRPIVYSCEWPLYMWPFQKPNYTEIRQYCNHWRNFADIDDSWASIKSILDWTSRNQERIVDVAGPGGWNDPDMLVIGNFGLSWDQQVTQMALWAIMAASLFMSNDLRAISPQAKALLQDKDVIAINQDPLGKQGYQLRKGDNFEVWERPLSGDAWAVAIINRQEIGGPRSYTIPVASLGKGVACNPACFITQLLPVKRQLGFYNWTSRLKSHINPTGTVLLQLENTMQTSLKDLL
modifications: Synthetic Polypeptide sequence of Variant No. 669 of mature Human GLA
B3: 639 (protein)
chain: LDNGLARTPTMGWLHWERFMCNLDCQEEPDSCISEKLFEEMAERMVTEGWKDAGYEYLCIDDCWMAPQRDSEGRLQADPQRFPHGIRQLANHVHSKGLKLGIYADVGNKTCAGFPGSFGYYDIDAQTFADWGVDLLKFDGCYCDSLENLADGYKHMSLALNRTGRPIVYSCEWPLYMWPFQKPNYTEIRQYCNHWRNFADIDDSWASIKSILDWTSRNQERIVDVAGPGGWNDPDMLVIGNFGLSWYQQVTQMALWAIMAAPLFMSNDLRAISPQAKALLQDKDVIAINQDPLGKQGYQLRKGDNFEVWERPLSGDAWAVAIINRQEIGGPRSYTIPVASLGKGVACNPACFITQLLPVKRQLGFYNWTSRLKSHINPTGTVLLQLENTMQTSLKDLL
modifications: Synthetic Polypeptide sequence of Variant No. 639 of mature Human GLA
B4: 670 (protein)
chain: LDNGLARTPTMGWLHWERFMCNLDCQEEPDSCISEKLFMEMAERMVTEGWKDAGYEYLCIDDCWMAPQRDSEGRLQADPQRFPHGIRQLANHVHSKGLKLGIYADVGNKTCAGFPGSFGYYDIDAQTFADWGVDLLKFDGCYCDSLENLADGYKHMSLALNRTGRPIVYSCEWPLYMWPFQKPNYTEIRQYCNHWRNFADIDDSWASIKSILDWTSRNQERIVDVAGPGGWNDPDMLVIGNFGLSWDQQVTQMALWAIMAAPLFMSNDLRAISPQAKALLQDKDVIAINQDPLGKQGYQLRKGDLFEVWERPLSGDAWAVAIINRQEIGGPRSYTIPVASLGKGVACNPACFITQLLPVKRQLGFYNWTSRLKSHINPTGTVLLQLENTMQTSLKDLL
modifications: Synthetic Polypeptide sequence of Variant No. 670 of mature Human GLA
B5: 666 (protein)
chain: LDNGLARTPTMGWLHWERFMCNLDCQEEPDSCISEKLFMEMAERMVTEGWKDAGYEYLCIDDCWMAPQRDSEGRLQADPQRFPHGIRQLANHVHSKGLKLGIYADVGNKTCAGFPGSFGYYDIDAQTFADWGVDLLKFDGCYCDSLENLADGYKHMSLALNRTGRPIVYSCEWPLYMWPFQKPNYTEIRQYCNHWRNFADIDDSWASIKSILDWTSRNQERIVDVAGLGGWNDPDMLVIGNFGLSWDQQVTQMALWAIMAAPLFMSNDLRAISPQAKALLQDKDVIAINQDPLGKQGYQLRKGDNFEVWERPLSGDAWAVAIINRQEIGGPRSYTIPVASLGKGVACNPACFITQLLPVKRQLGFYNWTSRLKSHINPTGTVLLQLENTMQTSLKDLL
modifications: Synthetic Polypeptide sequence of Variant No. 666 of mature Human GLA
B6: 671 (protein)
chain: LDNGLARTPPMGWLHWERFMCNLDCQEEPDSCISEKLFMEMAERMVTEGWKDAGYEYLCIDDCWMAPQRDSEGRLQADPQRFPHGIRQLANHVHSKGLKLGIYADVGNKTCAGFPGSFGYYDIDAQTFADWGVDLLKFDGCYCDSLENLADGYKHMSLALNRTGRPIVYSCEWPLYMWPFQKPNYTEIRQYCNHWRNFADIDDSWASIKSILDWTSRNQERIVDVAGPGGWNDPDMLVIGNFGLSWDQQVTQMALWAIMAAPLFMSNDLRAISPQAKALLQDKDVIAINQDPLGKQGYQLRKGDNFEVWERPLSGDAWAVAIINRQEIGGPRSYTIPVASLGKGVACNPACFITQLLPVKRQLGFYNATSRLKSHINPTGTVLLQLENTMQTSLKDLL
modifications: Synthetic Polypeptide sequence of Variant No. 671 of mature Human GLA
B7: 667 (protein)
chain: LDNGLARTPTMGWLHWERFMCNLDCQEEPGSCISEKLFMEMAERMVTEGWKDAGYEYLCIDDCWMAPQRDSEGRLQADPQRFPHGIRQLANHVHSKGLKLGIYADVGNKTCAGFPGSFGYYDIDAQTFADWGVDLLKFDGCYCDSLENLADGYKHMSLALNRTGRPIVYSCEWPLYMWPFQKPNYTEIRQYCNHWRNFADIDDSWASIKSILDWTSRNQERIVDVAGPGGWNDPDMLVIGNFGLSWDQQVTQMALWAIMAAPLFMSNDLRAISPQAKALLQDKDVIAINQDPLGKQGYQLRKGDNFEVWERPLSGDAWAVAIINRQEIGGPRSYTIPVASLGKGVACNPACFITQLLPVKRQLGFYNWTSRLKSHINPTGTVLLQLENTMQTSLKDLL
modifications: Synthetic Polypeptide sequence of Variant No. 667 of mature Human GLA
B8: 668 (protein)
chain: LDNGLARTPTMGWLHWERFMCNLDCQEEPDSCISEKLFEEMAERMVTEGWKDAGYEYLCIDDCWMAPQRDSEGRLQADPQRFPHGIRQLANHVHSKGLKLGIYADVGNKTCAGFPGSFGYYDIDAQTFADWGVDLLKFDGCYCDSLENLADGYKHMSLALNRTGRPIVYSCEWPLYMWPFQKPNYTEIRQYCNHWRNFADIDDSWASIKSILDWTSRNQERIVDVAGPGGWNDPDMLVIGNFGLSWDQQVTQMALWAIMAAPLFMSNDLRAISPQAKALLQDKDVIAINQDPLGKQGYQLRKGDNFEVWERPLSGDAWAVAIINRQEIGGPRSYTIPVASLGKGVACNPACFITQLLPVKRQLGFYNWTSRLKSHINPTGTVLLQLENTMQTSLKDLL
modifications: Synthetic Polypeptide sequence of Variant No. 668 of mature Human GLA

Legend:
Type in all cases: biochemical
[1] = HTP-analysis of supernatants pretreated with base (MUGal hydrolysis); conditions: activity of the variant/activity of Rd7BB (SEQ ID NO: 44); challenge at pH 7.5
Procedure, shortened: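 Supernatants from INVSc1 yeast expressing GLA variants (SD-Ura, 66-84 h, 30° C) were mixed with McIlvaine buffer pH 7.0-8.2 or 200 mM sodium bicarbonate pH 9.1-9.7 and held 1-18 h at 37° C. Residual activity was then measured on MUGal at pH 4.8/4.3, 37° C, 30-180 min, by fluorescence (Ex 355/Em 448 nm).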

[2] = HTP-analysis of supernatants pretreated with acid (MUGal hydrolysis); conditions: activity of the variant/activity of Rd7BB (SEQ ID NO: 44); challenge at pH 3.5
Procedure, shortened: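 Supernatants from INVSc1 yeast secreting GLA variants were challenged at 37° C. for 1-3 h in McIlvaine buffer at pH 3.3-4.3. Residual activity was then measured on 4 mM MUGal substrate stock at pH 4.8 with citrate buffer pH 4.3, over 30-180 min at 37° C. Reactions were quenched with sodium carbonate and read by fluorescence (Ex 355/Em 448 nm).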

[3] = HTP-analysis of yeast culture supernatants, no challenge (MUGal hydrolysis); conditions: activity of the variant/activity of Rd7BB (SEQ ID NO: 44)
Procedure, shortened: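 GLA variants were expressed in INVSc1 yeast grown in SD-Ura broth with glucose at 30° C., and culture supernatants were collected after 66-84 h. Supernatant was mixed with McIlvaine buffer pH 4.8 and MUGal (2 mM stock) in 50 mM citrate, 200 mM KCl, pH 4.6, incubated at 37° C. for 30-180 minutes, then quenched with sodium carbonate.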

Row | Molecule | Relative Activity of GLA Variants After Challenge at pH 7.5 [1] | Relative Activity of GLA Variants After Challenge at pH 3.5 [2] | Relative Activity of GLA Variants After No Challenge (NC) [3]
1 | B1 | + (>0.5 to 1.5 relative activity over Rd7BB (SEQ ID NO: 44)) | + (>0.5 to 1.5 relative activity over Rd7BB (SEQ ID NO: 44)) | + (>0.5 to 1.5 relative activity over Rd7BB (SEQ ID NO: 44))
2 | B2 | − (<0.5 relative activity to Rd7BB (SEQ ID NO: 44)) | − (<0.5 relative activity to Rd7BB (SEQ ID NO: 44)) | + (>0.5 to 1.5 relative activity over Rd7BB (SEQ ID NO: 44))
3 | B3 | − (<0.5 relative activity to Rd7BB (SEQ ID NO: 44)) | − (<0.5 relative activity to Rd7BB (SEQ ID NO: 44)) | − (<0.5 relative activity to Rd7BB (SEQ ID NO: 44))
4 | B4 | + (>0.5 to 1.5 relative activity over Rd7BB (SEQ ID NO: 44)) | + (>0.5 to 1.5 relative activity over Rd7BB (SEQ ID NO: 44)) | + (>0.5 to 1.5 relative activity over Rd7BB (SEQ ID NO: 44))
5 | B5 | − (<0.5 relative activity to Rd7BB (SEQ ID NO: 44)) | + (>0.5 to 1.5 relative activity over Rd7BB (SEQ ID NO: 44)) | + (>0.5 to 1.5 relative activity over Rd7BB (SEQ ID NO: 44))
6 | B6 | + (>0.5 to 1.5 relative activity over Rd7BB (SEQ ID NO: 44)) | ++ (>1.5 relative activity over Rd7BB (SEQ ID NO: 44)) | ++ (>1.5 relative activity over Rd7BB (SEQ ID NO: 44))
7 | B7 | + (>0.5 to 1.5 relative activity over Rd7BB (SEQ ID NO: 44)) | + (>0.5 to 1.5 relative activity over Rd7BB (SEQ ID NO: 44)) | + (>0.5 to 1.5 relative activity over Rd7BB (SEQ ID NO: 44))
8 | B8 | + (>0.5 to 1.5 relative activity over Rd7BB (SEQ ID NO: 44)) | + (>0.5 to 1.5 relative activity over Rd7BB (SEQ ID NO: 44)) | + (>0.5 to 1.5 relative activity over Rd7BB (SEQ ID NO: 44))
